B1: D2Q (designed binder)
chain: SGSGSEEEEKRLIEKMSKFIWWFAQQLGDERILRAVEKLQQEIKENSPTPETYMTLGNLLLSLLIWWAAQQLGDEKILEAVERLLQQIEENSPTPETHLTLAILMSALAIWQQAQKLGDEDILEAVERLLEEIQRNSPTPSTMTKLLWLALLLNNWEELQKQGDEEQLRSSEKAMKELKE
notes: Designed homodimer subunit, after TEV cleavage
B2: tj79C2-H62A (designed binder)
chain: SGSGSRYDELNARLLILLAELAAERADIAAERTGDPRVRELARELKRLAQEAAEEVKRDPSSWSVLHALWLIVVAIEAAVRALEAAERTGDPEVRELARELVRLAVEAAEEVQRNPSSWDVFMALLLIVFAIEAAVRALEAAERTGDPEVRELARELVRLAVEAAEEVQRNPSSKEVDMALLLILIAILEAVLSLLRAERSGDPEKREKARERVREAVERAEEVQRDPSGW
notes: as for B1
B3: D2L (designed binder)
chain: SGSGSREKELKQLISNLQILLLILLSEDPNNELVRKLQEKIKEAEEQGDPRRLKLIWWILNLIQMLQQLEQEDPNNELVKRLKELIKRALEEGDPRLLLLIHIILALIWLLQALEKEDPNNELVKRLKKLIEEALKEGDPRKLIQIALLLTWIATIQRLKKQDPNNELIKRAEETLEQSLKT
notes: as for B1
B4: D2P (designed binder)
chain: SGSGSEEEEKRLIEKMSKFIWWFAQQLGDERILRAVEKLQQEIKENSPTPETFMTLINLLLSLLIWWAAQKLGDEKILEAVERLLQQIEENSPTPETHMTLAALAQSLAIWQQAQKLGDEDILEAVERLLEEIQRNSPTPSTLIKLTWLLLLLNNWQELQKQGDEEQLRSSEKAMKELKE
notes: as for B1
B5: tj79C2-H65A (designed binder)
chain: SGSGSREDELLARYLILLAELAAEEADIAAERTGDPRVRELARELKRLAQEAAEEVKRDPSSSDVNHALHLIVLAILIAVEALEAAERTGDPEVRELARELVRLAVEAAEEVQRNPSSSDVLKALILILLAIIQAVKALEAAERTGDPEVRELARELVRLAVEAAEEVQRNPSSKEVTMALLLILIAILEAVLSLLRAERSGDPEKREKARERVREAVERAEEVQRDPSGW
notes: as for B1
B6: D2T (designed binder)
chain: SGSGSEEEELERLKEQLKIWQKLIKLILEQDPNDEQIRRILEQAEEIIQKLQEDPNNEELQRLIQLLFQLVLGIFIIKQILELDPNDEQIRRILEQAKEIIQKLQEDPNNEELYRLQGLLGMLVGIILLIKLMLEQDPNDELIREILEQAKEIIQKLQEDPNNQELLSLIHLLLALVLWIWFMKFQLEQDPNDEEIRRQLEQLEERIRRTLE
notes: as for B1
B7: SP2 (designed binder)
chain: SGSGSSDEEFKFLATEAKMLITAAERLAGTDPELQEMVALIKKELEQAERTFRNGDKSEAQRQLEFVLTAARAVMNVAAAANAAGTDPELIEMVLRILKQLKEAIRTFQNGDQEEAETQLRFVLRAAIAVAVVAAALVLAGTDPELQEMVKQILEELKQAIETFARGDKEKALTQLLFVAWAAHAVAMIAAAANLAGTDPRLQQQVKEILEKLKEAIETFQKGDEEQAFRQLAEVLAEAALVALRAALTN
notes: De novo designed subunit of a C2 homodimer
B8: JG (designed binder)
chain: SGSGSSDELEARLLIISANLQAEMAQIAAERTGDPRVRELARELKRLAQEAAEEVKRDPSSSEVNQNLTLISMAIALAVLALLLARKAGDEEARDIAREAVEVAVRAAELILEGRDEQRAWTLFLIAHALLLAVLAARLGNSEVAELAVKVLRLAKELEKLLPSEIALFVVSMIGMAALQAAMAASGGQEDYARDALRRLEEAIREAEENRSKESLEKVMEEAIRAYEQALRALAGG
notes: as for B1
B9: D2R (designed binder)
chain: SGSGSEEEELKRLQTLIKYLQLLIQNAKWQNPDDELLRQVEELIEEMKKRLEENPNSQEDQALLKLLITIIALIIMILWLKSENPDDELLRQVEELIKEMIERLKENPNSQEDQALLQLLHAILGLILLIQQLKKQNPDDELLQQVEELIEEMIKRLKENPNSEKDQILLSFLALSLLSIFLIQTQKKQNPDDERLKQWEKQIKESIESSKE
notes: as for B1
B10: JF (designed binder)
chain: SGSGSSDELQARFLILSAKLQAEMAQIAAERTGDPRVRELARELKRLAQEAAEEVKRDPSSSEVNSNLALISMAIALAVLALLLARKAGDEEARDIAREAVEVAVRAAELILEGRDDQRAWTLWLIAHALLMAVYAARLGNSEVAELAVKVLRLAKELEKLLPSEEALFVVSMIGLAALQAAMAAAGGQEDYARDALRRLEEAIREAEENRSKESLEKVEEEGIEAMEQALRAIAGG
notes: as for B1
B11: D2S (designed binder)
chain: SGSGSEEEELERLKEQLKIWQKLIKLILEQDPNDEQIRRILEQAEEIIQKLQEDPNNEELQRLIQLLFNLVAIIFSIKQILELDPNDEQIRRILEQAKEIIQKLQEDPNNEELFLLAHMLFALVAIILLIKLMLEQDPNDELIREILEQAKEIIQKLQEDPNNAELAMLIALLLSLVLWIWFMKFQLEQDPNDEEIRRQLEQLEERIRRTLE
notes: as for B1
B12: D2N (designed binder)
chain: SGSGSEEEEIRLAQLTIQIIQYQVEKNGDEQLLRLIQEITEQLQKEGDERLIRILNAMFTIIWILEAVEKNGDEELLRLIQEITEKLARQGDERLIKILSAMAGIIWILEIVKKNGDEQLLRLIREITRKLAEEGDERLIQILANMHSIIISSEELEKNGDEELLQKLRELLEKIAKELEHHHHHH
notes: as for B1
B13: D2K (designed binder)
chain: SGSGSREKELKQLISNLQILLLILLSQDPNNELVRKLQEKIKEAEEQGDPRRLKLIWWILALINILQALEQEDPNNELVKRLKELIKRALEEGDPRLLQLILLILHLIWLLQALEKEDPNNELVKRLKKLIEEALKEGDPRKLWQILALLLWIAQIQKLKKQDPNNELIKRAEETLEQSLKT
notes: as for B1
B14: SP1 (designed binder)
chain: GGDSRELIARYQILLAELAAIRADIAAERTGDPYVRKLARELKRLAQEAAEEVKRDPSSSDVNMALLLILLMIELAVRALEAAERTGDPEVRELAAELVWLAVEAAEEVQRNPSSSDVWLALHLIMLAIWAAVAALEAAERTGDPEVRELARELVRLAVEAAEEVQRNPSSKEVYMALLLILIAILEAVLSLLRAERSGDPEKREKARERVREAVERAEEVQR
notes: as for B7
B15: D2O (designed binder)
chain: SGSGSEEEEIRLAQLAIQIIQYQVEKNGDEQLLRLIQEITEQLQKEGDERLIRILLAMFAIILILEHVEKNGDEELLRLIQEITEKLARQGDERLIRILIAMAGIIWILELVKKNGDEQLLRLIREITRKLAEEGDERLIQILLAMHAIIISSEQLEKNGDEELLQKLRELLEKIAKE
notes: as for B1
B16: D2M (designed binder)
chain: SGSGSEEEQIRLAQLAIQIIQYQVEKNGDEQLLRLIQEITEQLQKEGDERLIAILSTMFGIIWILEQVEKNGDEELLRLIQEITEKLARQGDERLIQIGAAMLAIIIILEQVKKNGDEQLLRLIREITRKLAEEGDQRLIWILHAMMAIIMSSEELEKNGDEELLQKLRELLEKIAKE
notes: as for B1
B17: JH (designed binder)
chain: SGSSEELAREAREAAIRLAQASTKLMEAMIRGDLKELAEALIELARAVQELARVAKEYGNDELAKLAAFLAAHIAMLAIWVLILAIREGDDEVRELAKTAIKLASTAAKIVLDALPTAEEVRIITLLAKLAEEAADKKNEDSALAVLIAAMAVLIALAALEAAQRAGIEEAEKAARLLLKLAGEAARKKNPEEAKAVYNAALLVSIALLLLQKAKRAGSEETRRLAEEMLRQALERARKKN
notes: as for B1

Biological target: the molecule itself
Assay: size-exclusion chromatography, self-association (homodimer)
Description: FIG. 7. Size exclusion chromatography (SEC) traces of purified SP apo-proteins. Proteins were injected as 0.5 mL aliquots onto a Superdex™ 200 Increase 10/300 GL column (Cytiva Life Sciences). The narrow, isolated peaks indicate that the samples contain monodisperse protein. Running buffer was 150 mM NaCl, 10 mM Tris at pH 8. Proteins were purified by Ni-NTA and one round of SEC prior to collecting the data shown.
Proteins were purified by Ni-NTA and size-exclusion chromatography (SEC) (FIG. 7). […] A slightly lower predicted radius of gyration (Rg) value compared to experimental SAXS data is likely due to a dense hydration shell around the highly charged SP proteins (Svergun et al. 1998; Kim et al. 2016). The far ultraviolet (UV) circular dichroism (CD) spectra of three SP proteins that expressed in high yield (≥140 mg/L) show the proteins are highly α-helical with and without the synthetic Chl a derivative, Zn pheophorbide a methyl ester (ZnPPaM). Thermal denaturation curves monitored by the CD signal at 222 nm indicate that all three proteins are highly thermostable in the apo- and holo-states (FIG. 2).

**Q.** Does B1 bind?
**A.** Result: binds

**Q.** Does B2 bind?
**A.** Result: binds

**Q.** Does B3 bind?
**A.** Result: binds

**Q.** Does B4 bind?
**A.** Result: binds

**Q.** Does B5 bind?
**A.** Result: binds

**Q.** Does B6 bind?
**A.** Result: binds

**Q.** Does B7 bind?
**A.** Result: binds

**Q.** Does B8 bind?
**A.** Result: binds

**Q.** Does B9 bind?
**A.** Result: binds

**Q.** Does B10 bind?
**A.** Result: binds

**Q.** Does B11 bind?
**A.** Result: binds

**Q.** Does B12 bind?
**A.** Result: binds

**Q.** Does B13 bind?
**A.** Result: binds

**Q.** Does B14 bind?
**A.** Result: binds

**Q.** Does B15 bind?
**A.** Result: binds

**Q.** Does B16 bind?
**A.** Result: binds

**Q.** Does B17 bind?
**A.** Result: binds

Source: patent US20250326867A1, “De novo designed chlorophyll special pair proteins” (University of Washington, priority 2024, published 2025)
